Data reported in the supplement of paper PMC9170038.

Tested on: MS2 coat protein
Test: apparent KD of MS2 coat protein; higher = weaker reporter binding
Settings: Eterna round: R107
Protocol: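 RNA-MaP round R107: designed RNA switches with theophylline, tryptophan, arginine or FMN aptamers are transcribed on-chip within common flanks. They are titrated with SNAP-549-labelled MS2 coat protein in RNA-MaP buffer (100 mM Tris pH 7.5, 80 mM KCl, 4 mM MgCl2), without ligand or with the indicated ligand. Median apparent KD per design.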

[1] = input ligand: theophylline 20 uM
[2] = input ligand: theophylline 2 mM
[3] = input ligand: tryptophan 2.4 mM

| Sequence | apparent KD of MS2 coat protein (input ligand: arginine 13.2 mM) [nM] | apparent KD of MS2 coat protein [1] [nM] | apparent KD of MS2 coat protein [2] [nM] | apparent KD of MS2 coat protein [3] [nM] | apparent KD of MS2 coat protein (input ligand: none) [nM] |
| --- | --- | --- | --- | --- | --- |
| GAGUAGAAGACGGCCGCCACUAAACAUGAGGAUCACCCAUGUCGUGAUCCGUUACCUAGAGUAGAUAGGACCGGGUCAUAUAGUC [Exclusion Tryptophan B GF 15] | 27.5 | 41.5 | 30.2 | – | – |
| UGUGGGUCCGAAGAUACCAGCCAGCACAGCAUGUGUUUAAACAUGAGGAUCACCCAUGUCGGCCCUUGGCAGCUUGGUUUGGACG [theeternabot_exclusion_MS2_Theo_B_7] | 15.5 | 19.8 | – | 15.8 | – |
| AAGGUGAUCCCAGAUACCAGCUUAACAUGAGGAUCACCCAUGUUUGGGACGAAAGUCCCGGGCCCUUGGCAGCUGGGUUGCCAAG [SSTheo B #18] | 61.9 | 402 | – | 174 | – |
| AAUCGUAAGGCGGCCGCCACUACACAUGAGGAUCACCCAUGUCUCGCGGGCUUGCGUUGGGAUUGUAGGACCGGGCCAGUAAUAA [Exclusion - Tryptophan B (Freestyle 12)] | 19.3 | 37.9 | 23.5 | 21.3 | 26.4 |
| CCUGCGUUUCUUUUCUUUCGCAGGAAUGAUACCAGUAGGGAAACCUACCCUUGGCAGCAUGGGACAUGAGGAUCACCCAUGUUUU [SSThA NP+V+V2 #4] | 117 | 202 | – | 181 | – |
| AAACAUUGCUCAGAUACCAGACAUGAGGAUCACCCAUGUACCAAGGUAACCGAAAGGCAUGUCCCUUGGCAGCUGAGCAAUGAAA [MAT - Exclusion Theophlline B - Mod of Eli - D15] | 13.5 | 17.4 | – | 13 | – |
| AAAUAAAUACAUGAGGAUCACCCAUGUGAAGGAGCGCCCGUUAGGGCAGGUAGGUCGCACAUGAAUAACUCCGCGCGAAAGCGCA [MAT - Exclusion Arginine A - Mod of Eli - D10] | 41.8 | 37.1 | 52.6 | 35.8 | 38.7 |
| AGGUACAGCAGGUGAUUCUGGCUGUACCAACGAGGACCGGUACGGCCGCCACUCGAAUAAACAUGAGGAUCACCCAUGUACAAAU [T''-M-T'-T-MS2 - Design 7] | 20.3 | 41.3 | 31.9 | – | – |
| UGUAUGGACUGAAGGAGCGCCUCAAAAUAACAUGAGGAUCACCCAUGUAGGCGAAAGCCUGGGCAGGUAGGUCGCAGUCCAUACU [ArgBX 2 #StaticStem #MS2Late] | 20.9 | 21.4 | 13.4 | 12.4 | 12.9 |
| GCUGUAAGUGCAGAUACCAGCGUGUUAUAUUUCUAAUGACAUGAGGAUCACCCAUGUAAAUGCCCUUGGCAGCUGCACUUACAGC [SSTHB #7] | 13.2 | 16.7 | – | 16.2 | – |
| GGGUACAUCGCGGCCGCCACUUUUGUAAAUACAUGAGGAUCACCCAUGUCGAUGGAGACAUCGGUGAGGACCGGGUGAUGUACCG | 196 | 523 | 721 | 295 | 624 |
| AUAACAUGAGGAUCACCCAUGUAAGCUGAAGGAGCGCUGGAAACAGCAGGUAGGUCGCAGCAUGUUUCCACAUGGGUAGGAAACU [(M1)-(M2)-(Arg1)-(Arg2)-(A)'-(M)'-(A)''_Design8] | 42.4 | 86.2 | 123 | 49.5 | 80 |
| UUUUUCGCGGGUGAUACCAGCAAAGUUGUACUGGUCUGGUACAUGAGGAUCACCCAUGUUUGCCCUUGGCAGCGCUCGGGAGAAG [#22 Exclusion-TheophyllineB] | 33.2 | 39.2 | 32.7 | 23.5 | 21 |
| CUCAUCCACGCGGCCGCCACUAUAUUGUGGUGUGAAUGUGUCGUAAUACAUGAGGAUCACCCAUGUAGGACCGGGCGUGGAUGAG [#08 Exclusion Tryptophan B] | 19.3 | 30.9 | 37.4 | – | – |
| AAUUAUUUCUCAAUUAUUUAAUCUUCAGAAGGAGCGUGAUGAUUCACAGGUAGGUCGCUGAUGACAUGAGGAUCACCCAUGUAUU [JR_SSArginiA_Sub003] | 30.6 | 31.1 | 29.1 | 27.5 | 30.1 |
| UCAUGCAGGUCGGCCGCCACUACACACAUGAGGAUCACCCAUGUAGUUACUGGGUGAAGUGGCAGUAGGACCGGGACCUGCAUAC [Brourdmod09] | 89.1 | 604 | 342 | 78 | 591 |
